Laboratory results from patent US9878137B2, “Bioactive agent delivery devices and methods of making and using the same” (The Regents of the University of California, priority 2012, dated 2018).

Assay: In vitro drug permeation studies across caco-2 monolayer on Transwell inserts
Assay type: in vitro ADME, Human
Settings: PEGDMA 15% Texas red-BSA, 30% FITC-BSA, 45% DNP-BSA reservoirs of same device; FIG. 6
Procedure: In vitro drug permeation studies. The drug loaded microdevices were released within 2 min from the wafers using 8 M potassium hydroxide (KOH) solution that was preheated to 40° C. The released microdevices being less dense than water was ultracentrifuged (30 kDa Amicon ultra centrifugal filters) and washed with PBS twice for release and permeation studies. Human colorectal adenocarcinoma epithelial cells (caco-2 ATCC) were grown to confluency (transepithelial electrical resistance plateau at 900-1000Ω) on 50% collagen-ethanol (Type 1, Becton Dickinson, Franklin Lakes, N.J.) treated 24-well Transwell® inserts. The caco-2 cells were maintained in Modified Eagle's Media (MEM) with 20% fetal bovine serum (Invitrogen), 2 mM L-glutamine, 1.5 g/L sodium bicarbonate, 2.5 g/L glucose, 10 mM HEPES buffer, 1.0 mM sodium pyruvate, and 1 mg/mL penicillin/streptomycin for 5 days or more prior to seeding. […] Discrete time (20 min) samples were taken from both the upper and lower chamber of the Transwell® for the different drug loaded systems and observed for fluorescence using a Packard Fluorocount Microplate Fluorometer (Meriden, Conn.).
To measure the drug elution kinetics of the various microdevices, release of the different fluorophore tagged BSAs were monitored, in vitro, from hydrogel laden microdevices. […]

Substance | relative release rate at different crosslinking ratio
FITC-BSA: fluorescently labeled bovine serum albumin, model fluorophore-drug | released faster than DNP-BSA
Texas red-BSA: fluorescently labeled bovine serum albumin, model fluorophore-drug | released faster than FITC-BSA
